The domain aggregation screens of Martell et al. (2025)

assay: soluble fraction after stress (log2 fold change); higher = more stays soluble; pooled small domains, quantitative proteomics; details: stress: 50 degC
Procedure, shortened: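 Each library was heated to 50°C as a stress step. The libraries, made up of small protein domains, were pooled and analysed at high throughput by quantitative proteomics. The reported value is the base-two logarithm of the fold change in each protein's soluble amount after stress, taken as a measure of aggregation propensity. The higher the value, the more protein stays in solution.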

| Sequence | soluble fraction (log2) |
| --- | --- |
| HMITIDNYFNKEKELDFSSFPEALRKGHGFVSKATAHGSSWVSYHSSDAIKKTIDIYLSKLNEYLSNNAKA | -0.494 |
| HMVLTGTIKKYNNERGFGFISTSNFGDVFFHIKDFQKGEQPIPGREVYFEVVKKENKKRAIHVYYSD | -1.02 |
| HMEKAYVWTDTRTFDVQNYIGKKKSEVKNDQYGFEFLGEGDYVIDQLPRVGEQIEEGQKVKIMLGNQQEI | 0.0468 |
| HMSSWEDNFSYWIRNVAETLDKDLLNVANSKLEKIIINAALDQTNGKKNEAAILLGLGRNTLAKKIKELG | -0.858 |
| HMTMMTFGEKLQNARKGAGLSQEQLAEKLSVSRSAVAKWENDNGMPDIDNLKAIAQLLDVSIDYLLEN | 0.133 |
| HMLPDDDMLLNILTKLLIDKQFVINSHEIFDFIIKRANRSYEEMFILVNKLDQLSLEKKRQLTIPLIKEI | -0.652 |
| HMSPEWTPAEQDAIDKASEGEYGEALQRVLSGDYEPMDIPDALWGVQQVADKDTYSSIQKKIADIGN | 0.42 |
| HMTGSTSVAQVSTPSGSLNLRAYASTSARVLLQIPEYAFVTVYNRGATWSYVSYNGVSGYVMSVYLSFGG | -1.01 |
| HMDFYIVLGVDRAASVSDVKRAYRRLARKYHPDINPGDREAEAFFLRVTEAYETLIDPDRRQDYDVNG | -0.94 |
| HMETENLSPREREILEYIVKGYSYKMIAADLNIATETVRSHIKKIYKKLQVNSATEAVYKYSN | -0.322 |
| HMGAAAQLLHAVVLRVPAEDTMKFVSETPELRRYLGAPLGPTAALVRPGQEQELAAALQAHGILVEFDE | -0.0602 |
| HMSKSIEEIYDEAIRSLANEEYDSAKKLFSYLIDNFSDPEKLPLSLFWLGEIEFSSSNFDQSKIHYIE | -0.0445 |
| HMLLNTSQLKELYNRYDKKNSSLISIPFSAISDEPLKFYKWYAALFQIELNVKAFADVDSKQIIIYKGTK | -2.51 |
| HMSINTLEVHSLKALENLAESPLLISFSYENEEYNYRLASSDVSLLKKISSNYSDDSDIKGLRFIS | -0.992 |
| HMQPYTYNPNFLSDYRAYSLGIPLEAYDKLVQFRASGSFVNSMSDFQKITGVSDSLLAVLHSKFRYPK | -0.884 |
| HMNNWRRSLEREVTASLARGDRDIFDGLNRSFEAALITKALEHTGGRRIEAATLLGIGRNTLTRKIQDLGL | -1.83 |
| HMEVQVGKQVRAFRETLGMTVQQFAERTGFSAALLAQIENRMVSPSLGTLVKIANTFGTTVSSFIG | 0.0076 |
| HMGSNTLEDAYKVLGITPDATDDEVRKAYKKMVIQHHPDKVANLGEDVKKAATIKLQEINNAKEIIFKARN | 0.139 |
| HMKDSIQIPNVVGMTIKDAQSQYGKSFSIIEQNRTESTKPAGTILEQTPAGGDTVSKRDNIIIRVVVSLG | 0.132 |

| Sequence | soluble fraction (log2) |
| --- | --- |
| HMGTITKRTNPSGAVVWRAQIRINKADMPTYSESKTFSKKSLATEWLKRREAEIEANPDLIL | -0.348 |
| HMSSASETQYELALQAMRDGDNDAALRSLSTALASGFSDWQRIDEEPLLAALANDVRFQVLRSRWK | 0.0414 |
| HMKKILIVTNRSAGMVVYTIPEEGIRREFTPGETKKIPFEELEKLAYLSGGRTLMENFLKIVDTETTEELG | -0.543 |
| HMSAEAYLSFVKKENLRAAVVNYENNKEWLKDVPHERLLDLAVFAKVDMGEPGMSMKFNNWLLSR | -0.78 |
| HMHGETLAAKRREEIKVRIQNIYDQSEQIFGYRKITATLRSQGVVVSEKLVSQLMRELEISSVS | -3.87 |
| HMTPAIEKTAVIVFINGKKYYVHTVKSGETLYSIAKAYKVDEKVIKEHNPNVADGLRIDQTVKIPVPEQVK | 0.144 |
| HMAPREELIAIHEALDKLEREDPQVSQLVKLRYFVGMTMAEAADAMDLKKRAAEALWTYGKAWLHREIKKN | -2.85 |
| HMKSNIGENIRQLREKREMSVERVARMLEVKPATVIGWESGRELPEPAELGLLAKLFDVTVEELN | 0.106 |
| HMSTPAKVTPTNPIVKQLFNAAETQIKNKDIQNAIASYEKADTLTTDEKVKQYIHYQLSTLKDDN | -0.14 |
| HMSYQSYDKVVGDTFFEANLKAESKFGKGNFEIISTRRVKHPIYLGFGHKELVELTIGIHDP | -0.308 |
| HMPGRVITVMVNGKRVDLPFREEPYIFVDLFRYMDFDVERARGRIQLAINGKKAGYTDIIREGDSIEI | -0.562 |
| HMLILTWNYPYEYPMMMRSFLQEIGISRTFLAHIKSNGELLINGRHEIVLKTLQPGDVLTMVIPPSG | -1.71 |
| HMEDPLAAQWKQGRKLFHDDYGYGIISKAFTAGDELVIMVQFENGGEKRFLPKYQAHNLLLVEQ | -0.218 |
| HMGLDPVFKKWVDDNPWYTENRVLRALTHDYAEELKQTNPQLVGVEFLDQVKKRVQADHPEFFQ | 0.141 |
| HMKEKIIKEPYDLFTTDKIGQALEVQALLARQGIKVQRRVDGTKSTLFLENYTQSEKDQALLAVVRSGIV | 0.161 |
| HMSHGFVHLKGAVQHPGIYPVKENTRWDEVVKAAGGLTAAADIQQVNLAKVASDQESLYVPEKGET | 0.098 |
| HMDGLAEQLFNILREELESGDYKPGQKLMSESALAQKYGVSRLTVRAAIARLSALDYVETRNGEGSFVKKR | 0.0422 |
| HMSRREEALIALAQRVARQVARTKQPVTLEPMPANERRVIHVALRDNPDVETRSSGEGDQRRVTVYPRQ | 0.05 |
